According to patent US20240116985A1, “STAPLED PEPTIDES AND METHODS THEREOF” (priority 2020, published 2024):
Starred links: 1 amine or outer side, 2 acyl side, 3 side chain; linkers in the order of their positions; H or OH if unused. Positions of bridges follow the written chain, without caps; N, C: chain ends. Non-standard residues stand in square brackets, D forms with d. Primed or numbered codes have the meaning given here. *: point of attachment. PyrS2″ = (S)-3-amino-1-((pent-4-en-1-yloxy)carbonyl)pyrrolidine-3-carboxylic acid (stapling residue), C=CCCCOC(=O)N1CC[C@@](N[*:1])(C(=O)[*:2])C1; B5(5) = 2,2-bis(4-pentenyl)glycine, 2-amino-2-(pent-4-en-1-yl)hept-6-enoic acid (stitching residue), C=CCCCC(CCCC=C)(N[*:1])C(=O)[*:2]; PyrS2 = (S)-3-amino-1-((pent-4-en-1-yloxy)carbonyl)pyrrolidine-3-carboxylic acid, C=CCCCOC(=O)N1CC[C@@](N[*:1])(C(=O)[*:2])C1; B5(12) = 2-amino-2-(pent-4-en-1-yl)hept-6-enoic acid (two olefin side chains), C=CCCCC(CCCC=C)(N[*:1])C(=O)[*:2]; B5(19) = 2-amino-2-(pent-4-en-1-yl)hept-6-enoic acid (bis(4-pentenyl)glycine), C=CCCCC(CCCC=C)(N[*:1])C(=O)[*:2]; B5(3) = 2,2-bis(4-pentenyl)glycine (stitching residue), C=CCCCC(CCCC=C)(N[*:1])C(=O)[*:2]; Phe(3-COOH) = N[C@@H](Cc1cccc(C(=O)O)c1)C(=O)O; Phe(2-Cl) = N[C@@H](Cc1ccccc1Cl)C(=O)O; Bta = N[C@@H](Cc1csc2ccccc12)C(=O)O; αAllylPro = C=CC[C@@]1(C(=O)O)CCCN1; tBuAla = CC(C)(C)C[C@H](N)C(=O)O; 3Thi = N[C@@H](Cc1ccsc1)C(=O)O; S8 = C=CCCCCCC[C@](C)(N)C(=O)O; hSer = N[C@@H](CCO)C(=O)O; Nle = CCCC[C@H](N)C(=O)O; iPr = CC(C)*

Each binder was assayed against Bcat-Halo (beta-catenin HaloTag construct expressed in HEK293 cells) (UniProt P35222) (assay: NanoBRET Abs IC50 in HEK293 cells; B-cat-Halo with competitor TCF4-Luc).
Sequence of Bcat-Halo (beta-catenin HaloTag construct expressed in HEK293 cells) (P35222 whole entry): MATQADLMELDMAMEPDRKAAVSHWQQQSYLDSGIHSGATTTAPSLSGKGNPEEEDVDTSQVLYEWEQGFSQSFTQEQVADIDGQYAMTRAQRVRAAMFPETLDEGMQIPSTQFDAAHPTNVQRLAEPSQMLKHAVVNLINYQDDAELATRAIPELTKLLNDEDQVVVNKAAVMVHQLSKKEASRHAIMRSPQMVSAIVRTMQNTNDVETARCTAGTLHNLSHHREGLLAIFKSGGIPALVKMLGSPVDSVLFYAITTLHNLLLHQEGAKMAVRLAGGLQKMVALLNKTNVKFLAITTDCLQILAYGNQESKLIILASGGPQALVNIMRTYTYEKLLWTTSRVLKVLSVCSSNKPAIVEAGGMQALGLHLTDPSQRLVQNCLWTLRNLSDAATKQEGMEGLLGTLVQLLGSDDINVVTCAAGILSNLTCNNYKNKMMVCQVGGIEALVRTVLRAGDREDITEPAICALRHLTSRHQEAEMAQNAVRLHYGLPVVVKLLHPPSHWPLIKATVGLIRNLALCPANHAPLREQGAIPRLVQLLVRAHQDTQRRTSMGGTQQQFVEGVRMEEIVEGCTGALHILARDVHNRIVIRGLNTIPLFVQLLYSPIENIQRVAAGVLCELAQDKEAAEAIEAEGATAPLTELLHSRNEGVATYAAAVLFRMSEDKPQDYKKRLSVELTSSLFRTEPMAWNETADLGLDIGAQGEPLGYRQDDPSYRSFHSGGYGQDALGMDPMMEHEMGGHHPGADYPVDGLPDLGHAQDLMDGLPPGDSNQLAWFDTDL

IC50 [nM] | Binder
15400 | Ac-[αAllylPro]D[tBuAla][B5(19)]DDAAF[hSer][S8][Phe(2-Cl)][Bta]Q-NH2 (staple 1-4, 4-11) [I-1395]
40100 | Ac-[αAllylPro]D[Nle][B5(12)]DDAAF[Nle][PyrS2″]F[Bta]Q-NH2 (staple 1-4, 4-11) [I-1405]
21400 | Ac-[αAllylPro]D[Nle][B5(19)]DDAAF[Nle][PyrS2][3Thi][Bta]Q-NH2 (staple 1-4, 4-11) [I-1401]
4200 | Ac-[αAllylPro]DL[B5(12)]D[Phe(3-COOH)]AAF[Nle][PyrS2″][3Thi][Bta]Q-NH2 (staple 1-4, 4-11) [I-1407]

These binders were tested against full-length beta-Catenin (Uniprot ID P35222) (Homo sapiens (Human)) (UniProt P35222) (assay: FP competition; full-length beta-catenin, competitor 5FAM-TCF4(10-53)).
Target sequence in this assay (P35222 whole entry, one chain of several): as the sequence (P35222 whole entry) above

EC50 [nM] | Binder
33 | Ac-[αAllylPro]D[tBuAla][B5(19)]DDAAF[hSer][S8][Phe(2-Cl)][Bta]Q-NH2 (staple 1-4, 4-11) [I-1395]

The binders below were run against full-length beta-Catenin (Uniprot ID P35222) (Homo sapiens (Human)) (UniProt P35222) (assay: fluorescence polarization competition; full-length beta-catenin + 5FAM-TCF4(10-53) probe).
Target sequence in this assay (P35222 whole entry, one chain of several): as the sequence (P35222 whole entry) above

EC50 [nM] | Binder
26 | Ac-[αAllylPro]D[tBuAla][B5(5)]DEAAFK(iPr)[PyrS2][Phe(2-Cl)][Bta]L-NH2 (staple 1-4, 4-11) [I-1283]

These binders were tested against full-length beta-Catenin (Uniprot ID P35222) (Homo sapiens (Human)) (UniProt P35222) (assay: fluorescence polarization competition against 5FAM-TCF4(10-53) on full-length beta-catenin).
Target sequence in this assay (P35222 whole entry, one chain of several): as the sequence (P35222 whole entry) above

IC50 [nM] | Binder
26 | Ac-[αAllylPro]D[tBuAla][B5(5)]DEAAFK(iPr)[PyrS2][Phe(2-Cl)][Bta]L-NH2 (staple 1-4, 4-11) [I-1283]

The binders below were run against full-length beta-Catenin (Uniprot ID P35222) (Homo sapiens (Human)) (UniProt P35222) (assay: fluorescence polarization competition against 5FAM-TCF4 (10-53) on full-length beta-catenin).
Target sequence in this assay (P35222 2-781 limits assumed): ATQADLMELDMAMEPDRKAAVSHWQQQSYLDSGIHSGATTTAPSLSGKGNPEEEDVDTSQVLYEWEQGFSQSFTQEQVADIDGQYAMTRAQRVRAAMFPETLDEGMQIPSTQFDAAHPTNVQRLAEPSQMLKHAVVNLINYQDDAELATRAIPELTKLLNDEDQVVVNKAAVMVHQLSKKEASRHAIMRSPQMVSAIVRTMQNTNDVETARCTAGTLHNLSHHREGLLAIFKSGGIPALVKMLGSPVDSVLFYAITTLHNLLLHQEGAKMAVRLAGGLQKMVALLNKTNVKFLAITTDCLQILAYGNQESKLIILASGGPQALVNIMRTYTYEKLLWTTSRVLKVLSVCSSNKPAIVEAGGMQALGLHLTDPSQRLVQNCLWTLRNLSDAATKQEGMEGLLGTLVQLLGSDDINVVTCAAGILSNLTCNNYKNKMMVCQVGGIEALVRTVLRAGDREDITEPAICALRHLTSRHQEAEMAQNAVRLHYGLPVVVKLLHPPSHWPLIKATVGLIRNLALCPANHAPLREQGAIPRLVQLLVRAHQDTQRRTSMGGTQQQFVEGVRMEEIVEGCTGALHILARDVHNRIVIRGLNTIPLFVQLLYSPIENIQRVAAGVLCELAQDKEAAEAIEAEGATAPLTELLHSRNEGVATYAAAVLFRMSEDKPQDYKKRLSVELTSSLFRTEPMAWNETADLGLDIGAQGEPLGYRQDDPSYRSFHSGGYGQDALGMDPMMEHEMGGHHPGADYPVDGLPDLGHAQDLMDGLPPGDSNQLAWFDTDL

IC50 [nM] | Binder
8 | Ac-[αAllylPro]D[tBuAla][B5(3)]D[Phe(3-COOH)]AAFL[PyrS2″][3Thi][Bta]N-NH2 (staple 1-4, 4-11) [I-2043]
19 | Ac-[αAllylPro]D[tBuAla][B5(3)]D[Phe(3-COOH)]AAFA[PyrS2″][Phe(2-Cl)][Bta]N-NH2 (staple 1-4, 4-11) [I-2036]
24 | Ac-[αAllylPro]D[tBuAla][B5(3)]D[Phe(3-COOH)]AAFL[PyrS2″][Phe(2-Cl)][Bta]NAAA-NH2 (staple 1-4, 4-11) [I-2040]
17 | Ac-[αAllylPro]D[tBuAla][B5(3)]D[Phe(3-COOH)]AAFF[PyrS2″][Phe(2-Cl)][Bta]N-NH2 (staple 1-4, 4-11) [I-2037]
9 | Ac-[αAllylPro]D[tBuAla][B5(3)]D[Phe(3-COOH)]SAFL[PyrS2″][3Thi][Bta]A-NH2 (staple 1-4, 4-11) [I-2050]
5 | Ac-[αAllylPro]D[tBuAla][B5(3)]D[Phe(3-COOH)]AAFS[PyrS2″][3Thi][Bta]N-NH2 (staple 1-4, 4-11) [I-2045]
16 | Ac-[αAllylPro]D[tBuAla][B5(3)]D[Phe(3-COOH)]AAFL[PyrS2″][Phe(2-Cl)][Bta]NAA[dA]-NH2 (staple 1-4, 4-11) [I-2041]
9 | Ac-[αAllylPro]D[tBuAla][B5(3)]D[Phe(3-COOH)]AAFA[PyrS2″][3Thi][Bta]N-NH2 (staple 1-4, 4-11) [I-2042]
30 | Ac-[αAllylPro]D[tBuAla][B5(3)]D[Phe(3-COOH)]AAFN[PyrS2″][Phe(2-Cl)][Bta]F-NH2 (staple 1-4, 4-11) [I-2033]
9 | Ac-[αAllylPro]D[tBuAla][B5(3)]D[Phe(3-COOH)]AAFF[PyrS2″][3Thi][Bta]N-NH2 (staple 1-4, 4-11) [I-2044]
16 | Ac-[αAllylPro]D[tBuAla][B5(3)]D[Phe(3-COOH)]AAFA[PyrS2″][Phe(2-Cl)][Bta]N-NH2 (staple 1-4, 4-11; also: staple isomer, earlier eluting HPLC peak) [I-2035]

The binders below were run against beta-catenin (Homo sapiens (Human)) (UniProt P35222) (assay: fluorescence polarization competition; full-length beta-catenin with 5FAM-TCF4(10-53) probe as competitor).
Sequence of beta-catenin (Homo sapiens (Human)) (P35222 whole entry): as the sequence (P35222 whole entry) above

EC50 [nM] | Binder
9 | Ac-[αAllylPro]D[Nle][B5(12)]DDAAF[Nle][PyrS2″]F[Bta]Q-NH2 (staple 1-4, 4-11) [I-1405]
5 | Ac-[αAllylPro]D[Nle][B5(19)]DDAAF[Nle][PyrS2][3Thi][Bta]Q-NH2 (staple 1-4, 4-11) [I-1401]
5 | Ac-[αAllylPro]DL[B5(12)]D[Phe(3-COOH)]AAF[Nle][PyrS2″][3Thi][Bta]Q-NH2 (staple 1-4, 4-11) [I-1407]

The binders below were run against Bcat-Halo (UniProt P35222) (assay: NanoBRET Abs IC50, HEK293 cells, Bcat-Halo/TCF4-Luc; competitor TCF4-Luc).
Sequence of Bcat-Halo (P35222 whole entry): as above

IC50 [nM] | Binder
38600 | Ac-[αAllylPro]D[tBuAla][B5(5)]DEAAFK(iPr)[PyrS2][Phe(2-Cl)][Bta]L-NH2 (staple 1-4, 4-11) [I-1283]

What follows are binders tested against full-length beta-Catenin (Uniprot ID P35222) (Homo sapiens (Human)) (UniProt P35222) (assay: fluorescence polarization competition; full-length beta-catenin, competitor 5FAM-TCF4 10-53 probe).
Target sequence in this assay (P35222 2-781 limits assumed): as the sequence (P35222 2-781 limits assumed) above

IC50 [nM] | Binder
33 | Ac-[αAllylPro]D[tBuAla][B5(19)]DDAAF[hSer][S8][Phe(2-Cl)][Bta]Q-NH2 (staple 1-4, 4-11) [I-1395]
9 | Ac-[αAllylPro]D[Nle][B5(12)]DDAAF[Nle][PyrS2″]F[Bta]Q-NH2 (staple 1-4, 4-11) [I-1405]
5 | Ac-[αAllylPro]D[Nle][B5(19)]DDAAF[Nle][PyrS2][3Thi][Bta]Q-NH2 (staple 1-4, 4-11) [I-1401]
5 | Ac-[αAllylPro]DL[B5(12)]D[Phe(3-COOH)]AAF[Nle][PyrS2″][3Thi][Bta]Q-NH2 (staple 1-4, 4-11) [I-1407]
